The Human Domainome abundance scans (Beltran et al. 2025)

B1: Steroid hormone receptor ERR2, residues 100 to 176; numbered along this chain, O95718 (parent)
chain: KRLCLVCGDIASGYHYGVASCEACKAFFKRTIQGNIEYSCPATNECEITKRRRKSCQACRFMKCLKVGMLKEGVRLD

Variants of: B1
Experiment: abundance fitness (aPCA) (normalised: wild type 0, dead -1); higher = more abundant; growth selection in yeast, the domain comes from the species named
Conditions: Homo sapiens

Abundance fitness of substitutions, site by site:
A42: H -0.445, I 0.027, K -0.087, L -0.064, M -0.033, Q -0.191, R -0.024, S -0.098, V -0.153, W -0.043
T43: A 0.081, C -0.651, D -0.152, E 0.042, F -0.558, H -0.459, I -0.065, K 0.212, L -0.234, M 0.03, N -0.085, P -0.393, Q -0.175, R 0.043, S -0.237, V -0.012, W -0.021, Y -0.252
N44: C -0.473, D 0.119, E 0.022, F 0.068, G 0.117, H -0.314, I 0.034, K 0.007, L -0.278, P -0.741, Q -0.013, R 0.011, S -0.127, T -0.22, V -0.077, W -0.269, Y -0.278
E45: A -0.172, C -0.396, D -0.086, F -0.329, G 0.003, H -0.143, I -0.288, L -0.303, M -0.176, N -0.235, P -0.637, Q 0.055, S -0.149, T -0.209, V -0.144, W -0.981
C46: A -0.888, D -0.844, E -0.623, F -0.768, G -0.679, H -0.308, I -1.06, K -0.572, L -0.803, M -0.557, N -0.735, P -0.796, Q -0.834, R -0.704, S -0.539, T -0.766, V -0.615, W -0.733, Y -0.59
E47: A -0.102, C -0.172, D 0.038, F -0.354, G -0.165, I -0.476, K -0.155, L -0.103, M -0.592, N -0.09, Q -0.083, S -0.229, T -0.112, V -0.14, Y -0.184
I48: A -0.157, C -0.312, F -0.298, G -0.191, M -0.166, N 0.266, P -0.242, R -0.518, S -0.108, T -0.159, V 0.007, W -0.227
T49: A 0.189, C -0.948, D 0.118, E -0.003, F -0.254, G -0.041, H -0.523, I -0.281, K -0.035, L -0.117, N 0.015, P -0.223, Q -0.332, R -0.2, S -0.164, V -0.138, W -0.199
K50: A 0.126, C -0.51, D -0.055, E 0.224, F 0.047, G -0.102, I 0.112, L -0.088, M 0.098, N 0.071, Q 0.142, T 0.019, V 0.118, Y -0.128
R51: A 0.002, C -0.803, D -0.084, E 0.152, F -0.161, G 0.033, H -0.08, I -0.269, K -0.002, L -0.097, M 0.173, N -0.072, Q 0.119, S -0.14, T -0.04, W 0.022, Y -0.384
R52: A -0.037, C -0.86, D -0.242, E 0.136, F -0.056, G 0.062, H -0.627, K -0.115, L 0.099, M -0.084, N -0.156, P -0.339
